# Measurements reported in publication PMC10113246, “Disease-related p63 DBD mutations impair DNA binding by distinct mechanisms and varying degree”.
# T1: ΔNp63α R227Q (UniProt Q9H3D4-2 1-586, R172Q)
# T1 sequence: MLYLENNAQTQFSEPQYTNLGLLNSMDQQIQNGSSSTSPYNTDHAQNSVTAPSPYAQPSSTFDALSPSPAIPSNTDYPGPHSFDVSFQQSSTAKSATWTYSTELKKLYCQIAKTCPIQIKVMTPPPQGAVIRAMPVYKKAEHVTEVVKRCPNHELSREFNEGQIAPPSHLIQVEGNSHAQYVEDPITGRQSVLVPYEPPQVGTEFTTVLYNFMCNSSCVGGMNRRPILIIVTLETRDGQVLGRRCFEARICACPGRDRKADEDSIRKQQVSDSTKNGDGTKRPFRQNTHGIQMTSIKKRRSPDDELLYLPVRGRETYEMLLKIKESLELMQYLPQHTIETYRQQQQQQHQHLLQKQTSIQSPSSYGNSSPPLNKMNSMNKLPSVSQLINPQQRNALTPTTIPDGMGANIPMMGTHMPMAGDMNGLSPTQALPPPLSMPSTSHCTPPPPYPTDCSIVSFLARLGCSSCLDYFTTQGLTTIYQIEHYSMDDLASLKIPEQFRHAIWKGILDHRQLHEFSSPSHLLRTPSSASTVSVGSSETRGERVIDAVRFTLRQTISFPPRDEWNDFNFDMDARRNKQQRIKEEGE
# B1: KRT14 RE (pulldown) (dsDNA)
# DNA 1: AAAATATGACAGACATGATGAGGCGGATGA
# DNA 2: TCATCCGCCTCATCATGTCTGTCATATTTT
# B2: p21 RE (pulldown) (dsDNA)
# DNA 1: GCCAGGAACATGTCCCAACATGTTGAGCCG
# DNA 2: CGGCTCAACATGTTGGGACATGTTCCTGGC
# Biological target: T1, ΔNp63α R227Q
# Test: pull-down; not significantly different from WT; SPR DBD-TD: 25 mM HEPES pH 7.5, 200 mM NaCl, 0.5 mM TCEP, 0.005% Tween-20; SPR DBD: 10 mM HEPES pH 7.5, 150 mM NaCl, 0.2 mM TCEP, 0.005% Tween-20; random-sequence dsDNA (S12/S13) as reference cell; pull-down: 50 mM Tris pH 8.0, 150 mM NaCl, 0.1% Tween-20, 4 °C
# Conditions: protein: ivt, tags: Myc, chain copies: 4, blunt
Binder,binding result (label: 5' biotin on S10),binding result (label: 5' biotin on S8)
B1,binds,–
B2,–,binds
